Literature values, collected in publication PMC8900815.

Target: His124 (UniProt position 124, EWVKGHAGHPE)
Test: NMR
Settings: metal-free (no divalent cation bound)

Substance: Ribonuclease HI (RNase HI) (Escherichia coli)
- pKa: around 7
